The source of these data is patent publication US20170218081A1 (OHIO STATE INNOVATION FOUNDATION, published 2017).

In assay [1] the target is T1, Bovine submaxillary mucin (bovine).
T1 construct: Glycoprotein used as the TAG-72-positive antigen in dot blots and SPR; also called BSM; TAG-72 positive mucin
Kind of assay: SPR, BSM immobilised on CM5 chip. The protocol: To further confirm the binding data, surface plasmon resonance on 3E8.IgG, CC49.scFv, and 3E8.scFv (FIG. 7c) was determined. […] Next the affinity of the scFv of CC49 was measured. CC49.scFv binds in the mid-nanomolar range with a dissociation constant of 30±8 nM. Finally, SPR was conducted on 3E8.scFv and found it to bind 2-fold better than CC49.scFv and only 4-fold weaker than the bivalent IgG. At 16±4 nM, 3E8.scFv binds better than clinically tested CC49.IgG and scFv variants of CC49, and has more desirable biophysical properties than full-length antibodies.
The binding parameters were evaluated using surface plasmon resonance (SPR). BSM was immobilized on a CM5 dextran sensor chip using the GE Pharmacia amine coupling kit (BR-1000-50). Scouting conditions were 200 μg mL⁻¹ BSM in 100 mM sodium acetate, pH 4 for channel 2, and 10 μg mL⁻¹ BSA in 100 mM sodium acetate, pH 4 for channel 1. The immobilization protocol continued until 700 RU were obtained. Binding was measured as 2-1. Antibody and fragments were dialyzed into 10 mM HEPES, 150 mM NaCl, 3.4 μM EDTA, 0.005% surfactant P20 (GE Healthcare) and were assayed from 0-400 nM. Samples were bound for 120 seconds at 10 μL min⁻¹ and dissociation was measured for 180 seconds. The CM5 chip was regenerated between trials with 6 M guanidine and 200 mM acetic acid with no loss in activity. The average binding parameters were evaluated using the BIAevaluation software.
For orientation: In SPR one partner is held on a chip, and binding of the other changes the refractive index at the surface.

The target of assay [2] is T2, bovine serum albumin (bovine, UniProt P02769 25-607).
T2 construct: also called BSA
T2 sequence (P02769 25-607 limits assumed): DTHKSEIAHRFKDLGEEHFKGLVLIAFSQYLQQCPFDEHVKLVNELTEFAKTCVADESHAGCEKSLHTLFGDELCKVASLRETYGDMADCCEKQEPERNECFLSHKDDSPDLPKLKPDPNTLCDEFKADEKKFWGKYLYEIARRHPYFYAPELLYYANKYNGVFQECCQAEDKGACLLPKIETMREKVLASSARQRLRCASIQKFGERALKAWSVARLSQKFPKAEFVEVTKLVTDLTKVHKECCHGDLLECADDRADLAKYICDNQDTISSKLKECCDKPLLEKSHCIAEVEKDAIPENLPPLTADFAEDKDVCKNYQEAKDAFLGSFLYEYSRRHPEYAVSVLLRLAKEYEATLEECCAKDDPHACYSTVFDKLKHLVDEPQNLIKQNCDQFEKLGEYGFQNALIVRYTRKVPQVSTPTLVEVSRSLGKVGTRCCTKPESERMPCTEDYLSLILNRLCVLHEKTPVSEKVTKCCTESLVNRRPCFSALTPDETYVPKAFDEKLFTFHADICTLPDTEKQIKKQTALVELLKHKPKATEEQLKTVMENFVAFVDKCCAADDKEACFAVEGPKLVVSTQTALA
Kind of assay: negative control of the competition dot blot, fluorescein-labeled IgG, no BSM. The protocol:
(§1) A similar dot blot experiment was performed using constant concentrations of BSM and fluorescein-labeled 3E8 IgG. The assays were performed with increasing concentrations of unlabeled 3E8.scFv. […] Two negative controls were performed in parallel. […] By 4 μM scFv about half of the IgG is displaced and by […] the dot blot resembles the negative control. This analysis estimates that 3E8.scFv binds approximately 16-fold weaker than 3E8.IgG and both bind the same epitope. The slight loss in affinity is expected since the native IgG is bivalent versus the monovalent scFv.
(§2) The epitope binding of the 3E8.scFv was assayed for its ability to inhibit 3E8.IgG binding. Here, 0.25 μM labeled 3E8.IgG competed with increasing concentrations of nonlabeled 3E8.scFv (0 to 8 μM). The loss of fluorescence was observed using the Typhoon phosphorimager with 488 nm excitation.

For assay [3], the target named is T1, Bovine submaxillary mucin. As to the kind of experiment: SPR.
The target of assay [4] is T1, Bovine submaxillary mucin. As to the kind of experiment: competition dot blot; unlabeled scFv against 0.25 µM fluorescein-labeled 3E8 IgG on BSM. The protocol: as §1, §2
Assay [5] concerns the target T1, Bovine submaxillary mucin. As to the kind of experiment: estimate from the competition dot blot on BSM. Here is the method: as §1, §2
The target in assay [6] is T1, Bovine submaxillary mucin. Kind of assay: SPR on immobilised BSM.
Assay [7] concerns the target T2, bovine serum albumin. Kind of assay: fluorescence dot blot on nitrocellulose. The protocol:
Bovine submaxillary mucin is positive for the TAG-72 epitope, sialyl-Tn. To qualitatively assay binding, BSM was spotted on a nitrocellulose membrane and then blocked with bovine serum albumin (BSA). The antibodies and fragments were labeled nonspecifically at lysines with the NHS-ester of fluorescein, and then were added to the dot blots. After gentle washing the samples were imaged using a Typhoon phosphorimager.
Qualitative binding to sialyl-Tn was assayed by dot-blotting. First, 2 μL of 5 mg mL⁻¹ bovine submaxillary mucin (M3895-Sigma) was spotted on a nitrocellulose membrane. The membrane was allowed to dry overnight before blocking with 5 mg mL⁻¹ BSA. After overnight incubation, excess BSA was removed by washing before addition of fluorescein-labeled scFvs. The scFvs were incubated for 3 hours at room temperature before washing. Fluorescence was observed using a Typhoon phosphorimager with 488 nm excitation.

Assay [8] addresses T1, Bovine submaxillary mucin. Kind of assay: estimate from the competition dot blot against labeled 3E8.IgG.

B1: 3E8 IgG (antibody, V domains shown)
VH: QVQLVQSGAEVKKPGASVKVSCKASGYTFTDHAIHWVRQAPGQRLEWMGYFSPGNDDFKYSQKFQGRVTITADKSASTAYMELSSLRSEDTAVYYCARSWIMQYWGQGTLVTVSS
VL: not shown
notes: Full-length humanized monoclonal IgG, gift from Enlyton, Ltd; Fluorescein-labelled at lysines in the dot blots; also called the bivalent IgG; full-length 3E8 IgG
By Kd is commonly meant the constant that tells how readily two partners part at equilibrium. Consider B1, for which, in assay [1], the equilibrium dissociation constant (Kd) came out at 4 nM. Also, in the assay with bovine serum albumin [2], the binding result was “no binding (tested: 0.25 µM)”.

B2: 3E8.scFv (scFv)
scFv: GSSGDIVMTQSPDSLAVSLGERATINCKSSQSVLYSSNNKNYLAWYQQKPGQPPKLLIYWASTRESGVPDRFSGSGSGTDFTLTISSLQAEDVAVYYCQQYYSYPLTFGGGTKVEIKLSADDAKKDAAKKDDAKKDDAKKDLQVQLVQSGAEVKKPGASVKVSCKASGYTFTDHAIHWVRQAPGQRLEWMGYFSPGNDDFKYSQKFQGRVTITADKSASTAYMELSSLRSEDTAVYYCARSWIMQYWGQGTLVTVSS
notes: Labelled at lysines with fluorescein for the fluorescence dot blots and with biotin for the HRP dot blot and IHC; also called the scFv of 3E8; 3E8 scFv single chain
What is called IC50 is the concentration at which inhibition is half-maximal. Lower therefore signals greater potency in that assay. Turning to B2, the Kd in assay [3] is 16.4 nM; in assay [6], 12 nM; in assay [1], 16 nM; in assay [8], approximately 10.4 nM. For the same molecule, the IC50 in assay [4] is approximately 4000 nM. Besides, the “fold weaker binding than 3E8.IgG” value in assay [5] was approximately 16 fold. Moreover, the binding result with bovine serum albumin [7] was “no binding”. In addition, the “fold tighter binding than CC49.scFv” value in assay [1] was found to be 2 fold. The “fold weaker binding than 3E8 IgG” value in assay [1] turned out to be 4 fold.
